From publication PMC4072508, “Genome-Wide Prediction and Validation of Peptides That Bind Human Prosurvival Bcl-2 Proteins” (PLoS Computational Biology, 2014)

T1: Mcl-1, Q07820
T1 chain: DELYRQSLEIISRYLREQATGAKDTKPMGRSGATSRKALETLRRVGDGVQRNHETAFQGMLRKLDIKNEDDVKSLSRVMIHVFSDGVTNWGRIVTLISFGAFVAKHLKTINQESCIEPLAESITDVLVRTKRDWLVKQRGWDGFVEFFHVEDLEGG


Target: T1, Mcl-1, Q07820
Assay: peptide SPOT array, c-Myc-tagged receptor at 1 uM or 100 nM, anti-c-Myc-Cy3

Binder | SPOT signal as a fraction of Bim BH3's signal on the same receptor and array
TGVNGEISYSLFQASDEISKTFKVDF [PCDHB8] | 0.02
PFNKEELSAILKFGAEELFKEPEGEE [CHD1] | 0.02
DFITALPARGLDHIAENILSYLDAKS [BTRC] | 0.02
TRELQELARKLQELLDASENLLTENT [TXNDC11] | 0.01
FDRAVVLSHYIHNLSSEMFSEFDKRY [PRL] | 0.02
ADLRALLCRELRPLGAYMSGRLKVKG [STOML1] | 0.37
DPLNDNVATLLHQSSDRFVAELWKDV [MYH10] | 0.02
AEVELEYSRGLEKLAERFSSRGGRLG [ARHGAP4] | 0.02
PASTDAVSALLEQTAVELEKRQEGRS [WWC1] | 0.01
VMGSMFAVISLASIAVYFAKRFKRKN [LRRN1] | 0.13
SPVPPVVHLTLRQAGDDFSRRYRRDF [BCL2] | 0.26
LEMVSGSIQVLKHMSGRVGEELDEQG [STX10] | 0.02
DVTHSKAVEALKEAGSIVRLYVKRRK [DLG1] | 0.13
FSDCLMVVQFLRNFGKVLGFDVNIDV [BAZ2B] | 0.02
LPGRPGLAALLGRLSDRLGRNRDRQR [PGS1] | 0.24
EEVFQSLSKILDVASLEVLNEVNRRS [GCN1L1] | 0.14
EPTMKTLSDDLDEAAKEFQEKHKKEV [NAT10] | 0.01
GSKSDPLCVLLQDVGGGSWAELGRTE [CPNE1] | 0.02
HPEHFVCAFCLTQLSKGIFREQNDKT [LPXN] | 0.03
QLQTLPYVGFLEHIGRILDLQLEDNK [SLITRK6] | 0.02
SKSKIHAARSLSEIAIDLTETGTLKT [FRMD4A] | 0.02
TWEIECTSEMLKKLSSKVMTKVIKKK [TRANK1] | 0.11
ERMKGTFCIALEKFSKAIYKYVNHWR [HEATR7B2] | 0.37
CRREPGLAETLRDAAHLGLLECQFQF [WNT9B] | 0.02
AIDAIFLTTTLQNISEDVLAVMDNKN [CKAP5] | 0.02
PFNKEELTAILKFGAEDLFKELEGEE [CHD2] | 0.01
VPARAPAVDLLEEAADLLVVHLDFRA [PEX26] | 0.02

Binder | SPOT signal as a fraction of Bim BH3's signal on the same receptor and array
MRPEIWIAQELRRIGDEFNAYYARRV [BCL2L11] | 1
QISTRLPSDYIYGIGEQVHKRFRHDL [SI] | 0.12
KKSLAGAAQILLKGAERLTKSVTENQ [MED17] | 0.03
NATHEEVVHLLRNALDEVTITVEYLR [SNTG2] | 0.01
KGAKSESAESLRQWAQELEENLNELT [APOL4] | 0.01
RGPEAPGGRALRDAAENLFQELQEHF [PRR20C] | 0.02
AKYLSGIAHFLEKLAFSSTARFDSKD [PMPCA] | 0.06
GKDHPAVAATLNNLAVLYGKRGKYKE [KLC1] | 0.22
LDDSVEVIKALKNGGAHLDFRAKDGM [SHANK2] | 0.02
SSEEITVAGNLEKSAERSTQGLKFHL [RSC1A1] | 0.01
AEIELEYSRSLEKLAERFSSKIRSSR [SRGAP3] | 0.07
DRYEGFCVDMLKELAEILRFNYKIRL [GRIK4] | 0.03
KYFLQNFSCFLEETADEWAEKMPKGP [EFCAB6] | 0.03
SVLRKALHDSLHDCSHWFYTRWKDWE [ZRANB1] | 0.04
RTGDIALAYRLTDLGSRLLSQLERPL [KIAA1383] | 0.03
KRAAEMMASLLKDLAEIGIAVGNNDV [KIF5B] | 0.02
LFKAADSSRSIYEVAMQLLQILEPKM [FRYL] | 0.02
LELVSGSIGVLKNMSQRIGGELEEQA [STX6] | 0.02
RTVESEAASYLDQISRYYITRAKLVS [PSME3] | 0.15
IVIDCSAIQFLDTAGIHTLKEVRRDY [SLC26A2] | 0.02
LWAAQRYGRELRRMSDEFVDSFKKGL [BAD] | 0.53
AELEVECATQLRRFGDKLNFRQKLLN [PMAIP1] | 0.85
QPHTGKLCWFLDEAAARLLTVPFEKH [PGLS] | 0.02
AAPEGDWARLLEQMGALAVRGSRRER [ZBED3] | 0.11
LGKRTGTVQVLKRSGRELIENSRDDT [MACF1] | 0.05
SGEFARICRDDSHIGDAVVISCAKDG [PCNA] | 0.01
DRFEGYCIDLLRELSTILGFTYEIRL [GRIK2] | 0.02
